Measurements: patent publication US20060134122A1, “Peptides of syndecan-1 for inhibition of cancer” (priority 2004, published 2006)

Tests used:
[1] = system: human microvascular endothelial cells (HMECs); assay: Apoptosis of serum-starved HMEC; assay type: cell-based; conditions: for cell death / protection from apoptosis, agent alone: VEGF 100 ng/ml, FGF 100 ng/ml, hScd-1ED 30 ug/ml
Method: FIGS. 17A-B—Competition with soluble Sdc-1 ectodomain causes enhanced apoptosis of human microvascular endothelial cells (HMECs) in the presence of FGF. (FIG. 17A) HMEC-1 cells were plated overnight on gelatin, then starved for 24 hr to induce the intrinsic pathway of apoptosis. Apoptotic cells were easily observed by DIC microscopy. Examples of apoptotic cells are denoted by black arrows, living cells by red arrows. Cells were treated with 100 ng/ml VEGF, 100 ng/ml FGF, FGF+30 ug/ml hScd-1ED or hScd-1ED alone. […] (FIG. 17B) Quantification of % protection from apoptosis by each treatment. […] VEGF has no effect on this pathway, as it affects the extrinsic pathway of apoptosis which is not induced by serum starvation.
Finally, the inventors performed used human microvascular endothelial cells (HMECs), which also express Sdc-1, as well as the αvβ3 and αvβ5 integrins, to test the theory that endothelial cells undergoing angiogenesis in response to fibroblast growth factor, a common angiogenic agent, will enter apoptosis and die unless the FGF signal is accompanied by a coordinate signal from the αvβ3 integrin. The inventors hypothesis was that recombinant ectodomain of Sdc-1 would block the signal from the αvβ3 integrin and induce apoptosis in the presence of FGF. HMEC cells grown in low serum conditions spontaneously enter apoptosis. […] In fact, treatment with FGF together with the soluble ectodomain protein induced apoptosis beyond that of the low serum condition alone (FIGS. 17A-B).

B82L fibroblasts = assay: B82L cell attachment and spreading; assay type: cell-based, mouse
Source text: FIGS. 11A-F—Downregulation of mouse Sdc-1 expression by siRNA blocks αvβ5-dependent cell attachment and spreading on VN. FACS analysis for (FIG. 11A) mouse syndecan-1 (mAb 281.2), (FIG. 11B) αv integrin subunit (mAb H9.2B8), (FIG. 11C) mouse Syndecan-4 (mAb KY8.2), (FIG. 11D) human syndecan-1 (mAb B-B4) and (FIG. 11E) FcR^ecto-hS1 chimera (FITC-conjugated hIgG) expression against isotype IgG controls (red-fill) in vector^NEO (FIGS. 11A-C), human syndecan-1 (FIG. 11D) and FcR^ecto-hS1 (FIG. 11E) expressing B82L cells 48 h after transfection with either 600 nM control (Control) or mouse syndecan-1-specific siRNA (siRNA). (FIG. 11F) B82L^NEO empty vector-transfected control cells and B82L cells expressing human syndecan-1 or the FcR^ecto-hS1 chimera were transfected with control or mouse syndecan-1-specific siRNA and seeded on wells coated with either 5 μg/mL VN alone or a mixed substratum of VN plus 60 μg/mL of antibody directed against mouse syndecan-1 (281.2), human syndecan-1 (B-B4) or the FcR^ecto-hS1 chimera (hIgG). Cells were incubated at 37° C. for 2 h, fixed, and stained with rhodamine-conjugated phalloidin.
FIGS. 12A-B—B82L cell spreading on VN is blocked by recombinant Scd-1ED. (FIG. 12A) B82L fibroblasts were plated on 5 μg/mL VN in the absence of other treatment, or in the presence of 30 μM GST, 1-30 μM GST-mS1ED or 30 μM GST-mS4ED (inset), then fixed and stained with rhodamine-phalloidin for visualization. (FIG. 12B) Quantification of cell adhesion in triplicate samples (±S.E.) plated either with no additions, or concentrations of GST-mS1ED ranging from 0-30 μM. […]
The failure of NEO cells to engage the mixed substratum is indicative of the efficient blockade of mouse Sdc-1 expression by the siRNA. It is unlikely that the mouse Sdc-1-siRNA treatment has any non-specific cellular effects since spreading on VN is specifically rescued by the expression of full-length human Sdc-1 (hS1, FIG. 11F). Spreading of the B82L-hS1 cells is indistinguishable from parental cells. However, spreading on VN is not recovered in cells expressing the FcR^ecto-hS1 chimera—a construct in which the syndecan's ectodomain is replaced by the ectodomain of the human Fcγ receptor Ia (FcR^ecto-hS1)—regardless of whether the cells are plated on VN alone, or VN supplemented with 60 μg/mL of hIgG to engage the FcR^ecto-hS1 construct.
Recombinant Sdc-1 ectodomain competitively blocks αvβ5 integin activity. To test whether soluble Sdc-1 ectodomain will compete with the syndecan activation of the αvβ5 integrin, B82L cells were plated on 5 μg/mL VN in the presence of a recombinant GST fusion protein containing either the ectodomain of mouse Sdc-1 (GST-mS1ED) or human Sdc-1 (GST-hS1ED; data not shown).

[2] = system: mouse aortic endothelial cells; assay: Mouse aortic endothelial cell spreading on VN; assay type: cell-based
Source text: Secondly, they targeted Sdc-1 expression cells using siRNA.

## VEGF [reference compound]
[1]; starved 24 hr
  cell death / protection from apoptosis, agent alone: no effect

B1: GST-hS1ED: recombinant GST fusion protein containing the ectodomain of human Sdc-1 (protein)
chain: QIVATNLPPEDQDGSGDDSDNFSGSGAGALQDITLSQQTPSTWKDTQLLTAIPTSPEPTGLEATAASTSTLPAGEGPKEGEAVVLPEVEPGLTAREQEATPRPRETTQLPTTHQASTTTATTAQEPATSHPHRDMQPGHHETSTPAGPSQADLHTPHTEDGGPSATERAAEDGASSQLPAAEGSGEQDFTFETSGENTAVVAVEPDRRNQSPVDQGATGASQGLLDRKEVLG
modifications: left off: a dimerising Fc or GST
B82L fibroblasts; 5 μg/mL VN, S1ED 1-30 μM, GST and GST-mS4ED 30 μM
  cell attachment and spreading on VN: increasing blockade
B82L fibroblasts; cells plated on 5 μg/mL VN
  lowest concentration tested at which competition occurs: 1 µM

B2: hScd-1ED: soluble human Sdc-1 ectodomain used as competitor on HMEC cells (protein, UniProt P18827 23-254, looked up)
extracellular domain: QIVATNLPPEDQDGSGDDSDNFSGSGAGALQDITLSQQTPSTWKDTQLLTAIPTSPEPTGLEATAASTSTLPAGEGPKEGEAVVLPEVEPGLTAREQEATPRPRETTQLPTTHLASTTTATTAQEPATSHPHRDMQPGHHETSTPAGPSQADLHTPHTEDGGPSATERAAEDGASSQLPAAEGSGEQDFTFETSGENTAVVAVEPDRRNQSPVDQGATGASQGLLDRKEVLG
modifications: extracellular domain
[1]; control cells in 15% serum, not shown
  cell death in 15% serum: no effect
[1]; starved 24 hr, 100 ng/ml FGF + 30 ug/ml hScd-1ED
  apoptosis in the presence of FGF: dramatically increases apoptosis
[1]; starved 24 hr
  cell death / protection from apoptosis, agent alone: protective effect

B3: Sdc-1 ectodomain: recombinant Sdc-1 ectodomain competitor; species and fusion not stated at this place (protein)
chain: QIVATNLPPEDQDGSGDDSDNFSGSGAGALQDITLSQQTPSTWKDTQLLTAIPTSPEPTGLEATAASTSTLPAGEGPKEGEAVVLPEVEPGLTAREQEATPRPRETTQLPTTHQASTTTATTAQEPATSHPHRDMQPGHHETSTPAGPSQADLHTPHTEDGGPSATERAAEDGASSQLPAAEGSGEQDFTFETSGENTAVVAVEPDRRNQSPVDQGATGASQGLLDRKEVLG
[2]
  competitor concentration at which spreading on VN is blocked: 1 µM
